Like-named read-outs stand apart in the source and are kept apart here.
Key:
Experiment in all cases: cell-based or functional assay
[1] = molecular target: adiponectin receptor 1 (human) (UniProt Q96A54)
[2] = molecular target: adiponectin receptor 2 (human) (UniProt Q86V24)
[3] = molecular target: adiponectin receptor 1 (human) (UniProt Q96A54); remark: listed apart in the source
[4] = molecular target: adiponectin receptor 2 (human) (UniProt Q86V24); remark: listed apart in the source

adiponectin receptor 1 (human), sequence (Q96A54 whole entry): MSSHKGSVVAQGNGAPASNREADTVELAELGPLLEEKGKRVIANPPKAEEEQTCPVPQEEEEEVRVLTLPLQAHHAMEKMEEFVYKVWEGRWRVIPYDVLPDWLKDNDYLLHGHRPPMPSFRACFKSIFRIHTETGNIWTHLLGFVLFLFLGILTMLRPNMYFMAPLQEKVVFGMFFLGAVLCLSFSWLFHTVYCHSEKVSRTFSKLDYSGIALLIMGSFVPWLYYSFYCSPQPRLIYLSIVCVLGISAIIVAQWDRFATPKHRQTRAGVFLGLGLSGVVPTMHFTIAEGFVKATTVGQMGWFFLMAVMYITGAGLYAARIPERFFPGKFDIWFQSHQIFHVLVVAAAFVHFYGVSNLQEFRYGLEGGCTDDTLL
adiponectin receptor 2 (human), sequence (Q86V24 whole entry): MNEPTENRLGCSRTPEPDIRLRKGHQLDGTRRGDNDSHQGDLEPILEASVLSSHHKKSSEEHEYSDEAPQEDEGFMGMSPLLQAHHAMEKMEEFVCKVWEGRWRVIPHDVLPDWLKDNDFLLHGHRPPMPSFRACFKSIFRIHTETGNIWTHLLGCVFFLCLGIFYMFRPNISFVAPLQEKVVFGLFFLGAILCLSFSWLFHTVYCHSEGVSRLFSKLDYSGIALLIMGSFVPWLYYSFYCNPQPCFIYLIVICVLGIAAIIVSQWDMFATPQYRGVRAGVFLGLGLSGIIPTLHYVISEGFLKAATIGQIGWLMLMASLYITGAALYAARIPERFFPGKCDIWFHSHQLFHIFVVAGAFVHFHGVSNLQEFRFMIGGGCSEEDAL

EC50 of inhibition of PBL transendothelial migration (static adhesion assay) [1]: 0.94 µg/mL
EC50 of inhibition of PBL transendothelial migration (static adhesion assay) [2]: 0.94 µg/mL
EC50 of inhibition of PBL transendothelial migration (static adhesion assay) [3]: 40 nM
EC50 of inhibition of PBL transendothelial migration (static adhesion assay) [4]: 40 nM
Substance: adiponectin (from UniProt Q15848 19-244) (ligand)
